Data as given in paper PMC2383916.
Read-outs that look alike come from different tables or passages of the source.

Columns and labels:
GAL4-CRY1 (mouse) [1] = target: GAL4-CRY1 (mouse) (UniProt P97784); assay: two-hybrid; mammalian two-hybrid in cos-7 cells: Gal4 DBD fusion and VP16 fusion co-transfected with pFR-luc and pCMV-lacZ; reporter alone set to 1
GAL4-CRY2 (mouse) [2] = target: GAL4-CRY2 (mouse) (UniProt Q9R194); assay: as above
GAL4-PER2 (mouse) [3] = target: GAL4-PER2 (mouse) (UniProt O54943); assay: as above
GAL4-CRY1 (mouse) [4] = target: GAL4-CRY1 (mouse) (UniProt P97784); assay: two-hybrid; mammalian two-hybrid in HER911 cells: Gal4 DBD fusion and VP16 fusion co-transfected with the GAL4-based luciferase reporter pFR-luc and pCMV-lacZ; luciferase normalised to beta-galactosidase; reporter alone set to 1
GAL4-CRY2 (mouse) [5] = target: GAL4-CRY2 (mouse) (UniProt Q9R194); assay: as above
GAL4-PER2 (mouse) [6] = target: GAL4-PER2 (mouse) (UniProt O54943); assay: as above
GAL4-BMAL1 (mouse) [7] = assay: two-hybrid; mammalian two-hybrid in cos-7 cells: Gal4 DBD fusion and VP16 fusion co-transfected with pFR-luc and pCMV-lacZ; reporter alone set to 1
GAL4-BMAL1 (mouse) [8] = assay: two-hybrid; mammalian two-hybrid in HER911 cells: Gal4 DBD fusion and VP16 fusion co-transfected with the GAL4-based luciferase reporter pFR-luc and pCMV-lacZ; luciferase normalised to beta-galactosidase; reporter alone set to 1
[9] = target: GAL4-BMAL1ΔC-term (mouse); assay: as above
[10] = target: GAL4-BMAL1ΔPAS B/C-term (mouse); assay: as above
GAL4-CLOCK (mouse) = GAL4-CLOCK (mouse) (UniProt O08785); assay: as above
GAL4-BMAL1 (mouse) [11] = assay: as above; remark: listed apart in the source
[12] = target: GAL4-BMAL1ΔC-term (mouse); assay: as above; remark: listed apart in the source
[13] = target: GAL4-BMAL1ΔHLH/PAS A (mouse); assay: as above

UniProt O54943, sequence (O54943 whole entry, the tested form may be a part): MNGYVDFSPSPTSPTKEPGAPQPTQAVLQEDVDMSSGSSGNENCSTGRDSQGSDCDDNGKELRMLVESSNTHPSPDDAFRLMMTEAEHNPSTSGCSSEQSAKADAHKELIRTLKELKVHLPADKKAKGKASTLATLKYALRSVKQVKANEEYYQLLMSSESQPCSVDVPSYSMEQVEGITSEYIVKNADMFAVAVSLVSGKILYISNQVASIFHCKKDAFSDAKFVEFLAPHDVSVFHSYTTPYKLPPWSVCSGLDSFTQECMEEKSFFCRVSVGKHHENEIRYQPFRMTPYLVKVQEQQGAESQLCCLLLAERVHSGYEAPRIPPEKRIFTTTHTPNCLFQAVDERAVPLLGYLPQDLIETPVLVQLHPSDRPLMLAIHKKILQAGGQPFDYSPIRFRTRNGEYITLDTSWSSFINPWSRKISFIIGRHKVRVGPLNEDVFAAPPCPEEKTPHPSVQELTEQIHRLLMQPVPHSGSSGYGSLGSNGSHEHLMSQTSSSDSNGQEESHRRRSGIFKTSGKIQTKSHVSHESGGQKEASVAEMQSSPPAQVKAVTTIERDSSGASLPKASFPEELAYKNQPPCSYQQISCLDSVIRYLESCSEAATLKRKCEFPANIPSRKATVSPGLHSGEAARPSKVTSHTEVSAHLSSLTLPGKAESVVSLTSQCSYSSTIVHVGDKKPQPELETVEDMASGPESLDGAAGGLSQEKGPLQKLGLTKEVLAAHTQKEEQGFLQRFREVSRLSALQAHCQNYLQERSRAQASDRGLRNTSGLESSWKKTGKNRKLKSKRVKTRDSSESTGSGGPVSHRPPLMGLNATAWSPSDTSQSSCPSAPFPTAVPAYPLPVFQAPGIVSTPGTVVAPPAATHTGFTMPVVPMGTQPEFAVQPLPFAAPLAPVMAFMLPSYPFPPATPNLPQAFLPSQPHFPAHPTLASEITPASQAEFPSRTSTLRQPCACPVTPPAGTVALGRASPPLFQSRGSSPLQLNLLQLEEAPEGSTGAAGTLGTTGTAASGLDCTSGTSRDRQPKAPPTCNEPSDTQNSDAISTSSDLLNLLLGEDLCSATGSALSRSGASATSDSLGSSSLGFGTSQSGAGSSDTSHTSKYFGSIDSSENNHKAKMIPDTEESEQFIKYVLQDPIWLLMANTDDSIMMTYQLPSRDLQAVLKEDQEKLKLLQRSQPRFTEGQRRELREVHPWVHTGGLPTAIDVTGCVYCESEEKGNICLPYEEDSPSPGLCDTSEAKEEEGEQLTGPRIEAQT
UniProt O08785, sequence (O08785 whole entry, the tested form may be a part): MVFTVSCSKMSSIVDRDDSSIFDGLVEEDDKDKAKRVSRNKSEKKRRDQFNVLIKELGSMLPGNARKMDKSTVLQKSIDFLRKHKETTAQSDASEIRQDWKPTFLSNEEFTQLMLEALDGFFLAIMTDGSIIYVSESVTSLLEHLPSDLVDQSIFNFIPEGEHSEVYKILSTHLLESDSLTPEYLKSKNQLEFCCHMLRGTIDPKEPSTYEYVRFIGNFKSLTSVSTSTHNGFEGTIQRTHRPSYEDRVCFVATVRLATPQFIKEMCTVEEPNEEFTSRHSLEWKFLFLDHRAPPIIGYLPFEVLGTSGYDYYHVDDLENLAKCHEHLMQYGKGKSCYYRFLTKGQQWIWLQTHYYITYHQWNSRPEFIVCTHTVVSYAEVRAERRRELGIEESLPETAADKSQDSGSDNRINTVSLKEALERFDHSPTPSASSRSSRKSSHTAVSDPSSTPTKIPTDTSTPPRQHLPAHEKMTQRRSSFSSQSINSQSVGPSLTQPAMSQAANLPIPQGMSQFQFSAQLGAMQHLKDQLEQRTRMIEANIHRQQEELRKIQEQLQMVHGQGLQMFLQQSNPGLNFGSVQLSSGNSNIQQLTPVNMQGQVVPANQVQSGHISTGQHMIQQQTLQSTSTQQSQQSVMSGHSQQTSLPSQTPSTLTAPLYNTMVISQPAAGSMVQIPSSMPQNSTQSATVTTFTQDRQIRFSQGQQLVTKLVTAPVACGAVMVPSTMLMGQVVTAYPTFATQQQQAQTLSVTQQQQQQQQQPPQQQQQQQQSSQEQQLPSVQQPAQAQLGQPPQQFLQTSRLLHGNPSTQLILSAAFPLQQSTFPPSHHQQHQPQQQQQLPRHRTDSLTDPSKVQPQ

BMAL1-VP16 (natural protein)
fold luciferase activity over reporter alone (GAL4-CRY1 (mouse) [1]): 450 fold
fold luciferase activity over reporter alone (GAL4-CRY2 (mouse) [2]): 125 fold
fold luciferase activity over reporter alone (GAL4-PER2 (mouse) [3]): 2900 fold
fold luciferase activity over reporter alone (GAL4-CRY1 (mouse) [4]): 70 fold
fold luciferase activity over reporter alone (GAL4-CRY2 (mouse) [5]): 10 fold
fold luciferase activity over reporter alone (GAL4-PER2 (mouse) [6]): 110 fold

CLOCK-VP16 (from UniProt O08785 1-855) (natural protein)
fold luciferase activity over reporter alone (GAL4-PER2 (mouse) [3]): 55 fold
fold luciferase activity over reporter alone (GAL4-PER2 (mouse) [6]): 110 fold

PER2-VP16 (from UniProt O54943 1-1257) (natural protein)
fold luciferase activity over reporter alone (GAL4-BMAL1 (mouse) [7]): 200 fold
fold luciferase activity over reporter alone (GAL4-BMAL1 (mouse) [8]): 1000 fold
fold luciferase activity over reporter alone [9]: 150 fold
fold luciferase activity over reporter alone [10]: 5 fold
fold luciferase activity over reporter alone (GAL4-CLOCK (mouse)): 75 fold

B1: CRY1-VP16 (natural protein)
chain: MGVNAVHWFRKGLRLHDNPALKECIQGADTIRCVYILDPWFAGSSNVGINRWRFLLQCLEDLDANLRKLNSRLFVIRGQPADVFPRLFKEWNITKLSIEYDSEPFGKERDAAIKKLATEAGVEVIVRISHTLYDLDKIIELNGGQPPLTYKRFQTLVSKMEPLEMPADTITSDVIGKCMTPLSDDHDEKYGVPSLEELGFDTDGLSSAVWPGGETEALTRLERHLERKAWVANFERPRMNANSLLASPTGLSPYLRFGCLSCRLFYFKLTDLYKKVKKNSSPPLSLYGQLLWREFFYTAATNNPRFDKMEGNPICVQIPWDKNPEALAKWAEGRTGFPWIDAIMTQLRQEGWIHHLARHAVACFLTRGDLWISWEEGMKVFEELLLDADWSINAGSWMWLSCSSFFQQFFHCYCPVGFGRRTDPNGDYIRRYLPVLRGFPAKYIYDPWNAPEGIQKVAKCLIGVNYPKPMVNHAEASRLNIERMKQIYQQLSRYRGLGLLASVPSNSNGNGGLMGYAPGENVPSCSSSGNGGLMGYAPGENVPSCSGGNCSQGSGILHYAHGDSQQTHSLKQGRSSAGTGLSSGKRPSQEEDAQSVGPKVQRQSSN
fold luciferase activity over reporter alone (GAL4-BMAL1 (mouse) [7]): 110 fold
fold luciferase activity over reporter alone (GAL4-BMAL1 (mouse) [11]): 750 fold
fold luciferase activity over reporter alone [12]: 50 fold

B2: CRY2-VP16 (natural protein)
chain: MAAAAVVAATVPAQSMGADGASSVHWFRKGLRLHDNPALLAAVRGARCVRCVYILDPWFAASSSVGINRWRFLLQSLEDLDTSLRKLNSRLFVVRGQPADVFPRLFKEWGVTRLTFEYDSEPFGKERDAAIMKMAKEAGVEVVTENSHTLYDLDRIIELNGQKPPLTYKRFQALISRMELPKKPAVAVSSQQMESCRAEIQENHDDTYGVPSLEELGFPTEGLGPAVWQGGETEALARLDKHLERKAWVANYERPRMNANSLLASPTGLSPYLRFGCLSCRLFYYRLWDLYKKVKRNSTPPLSLFGQLLWREFFYTAATNNPRFDRMEGNPICIQIPWDRNPEALAKWAEGKTGFPWIDAIMTQLRQEGWIHHLARHAVACFLTRGDLWVSWESGVRVFDELLLDADFSVNAGSWMWLSCSAFFQQFFHCYCPVGFGRRTDPSGDYIRRYLPKLKGFPSRYIYEPWNAPESVQKAAKCIIGVDYPRPIVNHAETSRLNIERMKQIYQQLSRYRGLCLLASVPSCVEDLSHPVAEPGSSQAGSISNTGPRALSSGPASPKRKLEAAEEPPGEELTKRARVTEMPTQEPASKDS
fold luciferase activity over reporter alone (GAL4-BMAL1 (mouse) [7]): 70 fold
fold luciferase activity over reporter alone (GAL4-BMAL1 (mouse) [11]): 950 fold
fold luciferase activity over Gal4-Bmal1ΔHLH/PAS A alone [13]: 3 fold
